Reference: paper PMC3406708

Target: integrin α2β1 on human platelets (human (endogenous in platelets)) (UniProt P17301)
Experiment: flow cytometry on cells

Sequence of UniProt P17301 (P17301 30-1181, chain 1 of 2): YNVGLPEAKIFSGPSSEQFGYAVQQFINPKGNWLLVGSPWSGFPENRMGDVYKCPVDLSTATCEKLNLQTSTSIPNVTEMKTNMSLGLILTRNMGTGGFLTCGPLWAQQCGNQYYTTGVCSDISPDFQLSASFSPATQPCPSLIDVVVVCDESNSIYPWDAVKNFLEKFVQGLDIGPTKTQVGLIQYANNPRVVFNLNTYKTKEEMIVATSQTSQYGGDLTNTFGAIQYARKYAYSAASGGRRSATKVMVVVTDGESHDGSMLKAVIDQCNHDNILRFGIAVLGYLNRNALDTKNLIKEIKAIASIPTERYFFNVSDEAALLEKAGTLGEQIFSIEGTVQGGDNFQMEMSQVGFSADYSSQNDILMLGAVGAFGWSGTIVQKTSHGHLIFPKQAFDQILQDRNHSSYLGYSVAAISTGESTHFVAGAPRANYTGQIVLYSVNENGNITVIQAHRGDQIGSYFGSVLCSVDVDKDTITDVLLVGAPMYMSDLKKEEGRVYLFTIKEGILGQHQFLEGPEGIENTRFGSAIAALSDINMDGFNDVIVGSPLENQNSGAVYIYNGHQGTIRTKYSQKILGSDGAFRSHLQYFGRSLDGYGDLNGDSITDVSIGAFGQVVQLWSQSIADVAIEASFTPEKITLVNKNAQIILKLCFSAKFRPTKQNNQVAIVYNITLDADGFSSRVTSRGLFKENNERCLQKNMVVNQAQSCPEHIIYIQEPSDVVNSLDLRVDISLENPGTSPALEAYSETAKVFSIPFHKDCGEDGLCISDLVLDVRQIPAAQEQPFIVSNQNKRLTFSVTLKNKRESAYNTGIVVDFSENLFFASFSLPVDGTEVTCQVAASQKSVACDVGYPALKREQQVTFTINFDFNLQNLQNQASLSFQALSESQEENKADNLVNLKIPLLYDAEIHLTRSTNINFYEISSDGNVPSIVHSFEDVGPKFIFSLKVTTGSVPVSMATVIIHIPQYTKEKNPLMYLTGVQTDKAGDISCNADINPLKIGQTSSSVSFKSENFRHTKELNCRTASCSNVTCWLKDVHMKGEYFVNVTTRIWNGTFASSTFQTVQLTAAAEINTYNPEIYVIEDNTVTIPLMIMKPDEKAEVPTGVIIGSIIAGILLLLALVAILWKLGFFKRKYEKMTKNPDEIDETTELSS
Sequence of UniProt P17301 (P05556 21-798, chain 2 of 2, further chain): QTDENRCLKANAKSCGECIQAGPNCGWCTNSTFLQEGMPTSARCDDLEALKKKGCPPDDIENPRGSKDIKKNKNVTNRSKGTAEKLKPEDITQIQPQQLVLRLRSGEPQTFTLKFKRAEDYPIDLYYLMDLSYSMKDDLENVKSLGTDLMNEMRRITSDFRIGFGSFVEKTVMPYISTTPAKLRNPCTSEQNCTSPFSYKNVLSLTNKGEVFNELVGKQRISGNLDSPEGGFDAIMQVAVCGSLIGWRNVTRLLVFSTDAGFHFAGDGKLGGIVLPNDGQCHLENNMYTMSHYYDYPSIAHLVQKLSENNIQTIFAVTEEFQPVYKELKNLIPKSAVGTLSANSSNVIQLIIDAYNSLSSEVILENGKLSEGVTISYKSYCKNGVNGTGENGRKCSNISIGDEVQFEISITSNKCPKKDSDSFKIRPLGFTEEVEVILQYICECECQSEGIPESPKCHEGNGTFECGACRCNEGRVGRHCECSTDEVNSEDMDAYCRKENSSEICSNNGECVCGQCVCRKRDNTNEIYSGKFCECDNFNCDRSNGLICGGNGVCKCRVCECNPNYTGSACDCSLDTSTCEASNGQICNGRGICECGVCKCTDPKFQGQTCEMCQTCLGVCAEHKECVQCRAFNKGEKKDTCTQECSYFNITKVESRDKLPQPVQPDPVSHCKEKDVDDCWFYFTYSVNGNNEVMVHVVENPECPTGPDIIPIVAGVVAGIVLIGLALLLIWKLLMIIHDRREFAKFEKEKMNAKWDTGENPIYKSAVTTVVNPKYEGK

Substance: Rhinocetin (heterodimeric snaclec from the venom of Bitis gabonica rhinoceros) (complex)
- percent inhibition of 6F1 antibody binding at 50 μg/ml: 65%
- percent inhibition of 6F1 antibody binding at 100 μg/ml: 90%
